Data reported in patent US20200270588A1, “GLUCOSYL TRANSFERASE POLYPEPTIDES AND METHODS OF USE” (Syngenta Participations AG, priority 2017, published 2020).

Assay: UDP luminescence plate assay of E. coli extracts, mutants within SEQ ID No: 17, 2 mM metribuzin
Format: biochemical, Zea mays
Conditions: for metribuzin signal relative to the SEQ ID No:17 control (first parentheses) / ratio of metribuzin to DMSO signal (second parentheses) / SIGNAL: metribuzin signal of mutant divided by the signal of the SEQ ID No. 17 control / luminescence signal observed with 2 mM metribuzin: 2 mM metribuzin; for metribuzin signal relative to the SEQ ID No:17 control (first parentheses) / ratio of metribuzin to DMSO signal (second parentheses): additional mutation in SEQ ID No: 17; for SIGNAL: metribuzin signal of mutant divided by the signal of the SEQ ID No. 17 control: relative to SEQ ID No: 17 control; for luminescence signal in the DMSO control / luminescence signal observed with 2 mM metribuzin: additional mutations within SEQ ID No: 17; for luminescence signal in the DMSO control: DMSO in place of metribuzin; for luminescence signal observed with 2 mM metribuzin: control = SEQ ID No: 17
Protocol: Activities observed with metribuzin were generally lower in magnitude than seen with herbicide V in the previous examples. For example, in one plate assay run with 2 mM metribuzin using 5 ul of diluted extract of plate-grown BL21DE3 cells expressing w/t bx9 and assayed for 40 minutes (as described in Example 2) the UDP-Glo luminescence signal was ˜3.4 E6 as compared with ˜2.3E6 in the DMSO control and ˜1.7E6 in the H24A null mutant control. […] It was therefore important to assess potential improvements in the metribuzin activity of the various mutants relative to the wild type bx9 enzyme based not only on the H24A null activity control but also based upon controls with DMSO in place of metribuzin acceptor substrate. In some plate assays (using more dilute extracts) the metribuzin signals from the w/t enzyme was the same or barely greater than the DMSO control. Additionally, some mutations gave an increase in the ‘background’ UDP-glucose hydrolysis activity with just DMSO present that was the same or similar to the magnitude of the increase in signal seen with metribuzin. In these instances it is therefore uncertain from just this UDP-Glo assay method whether the specific metribuzin signal (glucosylation of metribuzin) is improved or not i.e. the signal seen with metribuzin may or may not all or to a large part be attributable to increased background hydrolysis). […] Thus the ratio of the metribuzin to DMSO signal as well as the increase in signal relative to the w/t bx9 is used to help distinguish those mutations most likely to offer the highest activity to metribuzin. A follow up assay monitored by, for example, LC MS is one method to distinguish these cases more quantitatively. The tables below summarise the results from two different sets of luminescence plate assays to detect single mutations giving improvements in the magnitude of the signal with metribuzin relative to w/t bx9 and/or the apparent specificity for metribuzin as measured by the deviation of the ratio of metribuzin to DMSO control activity from the bx9 w/t value of around unity.
A further separate screen was carried out to explore a library of additional mutations at various positions within the context of SEQ ID No: 17 for improved metribuzin activity. These were assayed, assessed and scored as above. […] These were S75K (2.5)(1.25), A236G (4.0)(1.15), A433V (3.3)(9.0) and R449C (1.8)(1.2).
A yet further and more comprehensive screen was carried out to explore saturation mutagenesis at all remaining amino acid positions within the context of SEQ ID No:17 for improved metribuzin activity. Again these were assayed, assessed and scored as above and the results of (out of the thousands screened) of the subset that were of interest are summarized in Table 16.

Molecule	metribuzin signal relative to the SEQ ID No:17 control (first parentheses)	ratio of metribuzin to DMSO signal (second parentheses)	SIGNAL: metribuzin signal of mutant divided by the signal of the SEQ ID No. 17 control	luminescence signal in the DMSO control	luminescence signal observed with 2 mM metribuzin	RATIO of the metribuzin signal to the DMSO signal (2 mM metribuzin vs DMSO control, same mutant)
S75K: additional mutation in SEQ ID No: 17 (protein, Mutated Zea mays Bx9 protein sequence) MASSRTGAGAGGRVVVFPFPFQGHFNPVMRLARALHARGLAITVFHSGALDPADYPADYRFVPVTVEADPKLLAKEDIAAIVTTLNASCDAPFRARLSALLAAEGRDSVRCVFTDVVWNAVLTASSDLGVPALGMMTASAASLRDYMAYRTLIDKGYLPVKEERKEDPVPELPPYLVKDLLRVDTSDLEEFAELLARTVTAARRASGLIFNTFPLIETDTLAEIHKALSVPVFAVAPLNKLVPTATASLHGVVQADRGCLQWLDTQQPGSVLYVSFGSFAAMDPHEFVELAWGLADSKRPFVWVVRPNLIRGFESGALPDGVEDEVRGRGIVVKWAPQEEVLAHPAVGGFLTHNGWNSTVEAISEGVPMVCCPRHGDQFGNMRYVCDVWKVGTELVGEQLERGQVKAAIDRLFGTKEGEEIKERMKEFKIAAAKGIGIGVDVDETASPRTDLTDLVDLIKSF	2.5	1.25	–	–	–	–
G366H: additional mutation in SEQ ID No: 17 (protein, Mutated Zea mays Bx9 protein sequence) MASSRTGAGAGGRVVVFPFPFQGHFNPVMRLARALHARGLAITVFHSGALDPADYPADYRFVPVTVEADPKLLASEDIAAIVTTLNASCDAPFRARLSALLAAEGRDSVRCVFTDVVWNAVLTASSDLGVPALGMMTASAASLRDYMAYRTLIDKGYLPVKEERKEDPVPELPPYLVKDLLRVDTSDLEEFAELLARTVTAARRASGLIFNTFPLIETDTLAEIHKALSVPVFAVAPLNKLVPTATASLHGVVQADRGCLQWLDTQQPGSVLYVSFGSFAAMDPHEFVELAWGLADSKRPFVWVVRPNLIRGFESGALPDGVEDEVRGRGIVVKWAPQEEVLAHPAVGGFLTHNGWNSTVEAISEHVPMVCCPRHGDQFGNMRYVCDVWKVGTELVGEQLERGQVKAAIDRLFGTKEGEEIKERMKEFKIAAAKGIGIGVDVDETASPRTDLTDLVDLIKSF	3.4	1.34	3.38	4.62E+06	6.17E+06	–
R449C: additional mutation in SEQ ID No: 17 (protein, Mutated Zea mays Bx9 protein sequence) MASSRTGAGAGGRVVVFPFPFQGHFNPVMRLARALHARGLAITVFHSGALDPADYPADYRFVPVTVEADPKLLASEDIAAIVTTLNASCDAPFRARLSALLAAEGRDSVRCVFTDVVWNAVLTASSDLGVPALGMMTASAASLRDYMAYRTLIDKGYLPVKEERKEDPVPELPPYLVKDLLRVDTSDLEEFAELLARTVTAARRASGLIFNTFPLIETDTLAEIHKALSVPVFAVAPLNKLVPTATASLHGVVQADRGCLQWLDTQQPGSVLYVSFGSFAAMDPHEFVELAWGLADSKRPFVWVVRPNLIRGFESGALPDGVEDEVRGRGIVVKWAPQEEVLAHPAVGGFLTHNGWNSTVEAISEGVPMVCCPRHGDQFGNMRYVCDVWKVGTELVGEQLERGQVKAAIDRLFGTKEGEEIKERMKEFKIAAAKGIGIGVDVDETASPCTDLTDLVDLIKSF	1.8	1.2	–	–	–	–
A433V: additional mutation in SEQ ID No: 17 (protein, Mutated Zea mays Bx9 protein sequence) MASSRTGAGAGGRVVVFPFPFQGHFNPVMRLARALHARGLAITVFHSGALDPADYPADYRFVPVTVEADPKLLASEDIAAIVTTLNASCDAPFRARLSALLAAEGRDSVRCVFTDVVWNAVLTASSDLGVPALGMMTASAASLRDYMAYRTLIDKGYLPVKEERKEDPVPELPPYLVKDLLRVDTSDLEEFAELLARTVTAARRASGLIFNTFPLIETDTLAEIHKALSVPVFAVAPLNKLVPTATASLHGVVQADRGCLQWLDTQQPGSVLYVSFGSFAAMDPHEFVELAWGLADSKRPFVWVVRPNLIRGFESGALPDGVEDEVRGRGIVVKWAPQEEVLAHPAVGGFLTHNGWNSTVEAISEGVPMVCCPRHGDQFGNMRYVCDVWKVGTELVGEQLERGQVKAAIDRLFGTKEGEEIKERMKEFKIAAVKGIGIGVDVDETASPRTDLTDLVDLIKSF	3.3	9.0	–	–	–	–
V360M: additional mutation in SEQ ID No: 17 (protein, Mutated Zea mays Bx9 protein sequence) MASSRTGAGAGGRVVVFPFPFQGHFNPVMRLARALHARGLAITVFHSGALDPADYPADYRFVPVTVEADPKLLASEDIAAIVTTLNASCDAPFRARLSALLAAEGRDSVRCVFTDVVWNAVLTASSDLGVPALGMMTASAASLRDYMAYRTLIDKGYLPVKEERKEDPVPELPPYLVKDLLRVDTSDLEEFAELLARTVTAARRASGLIFNTFPLIETDTLAEIHKALSVPVFAVAPLNKLVPTATASLHGVVQADRGCLQWLDTQQPGSVLYVSFGSFAAMDPHEFVELAWGLADSKRPFVWVVRPNLIRGFESGALPDGVEDEVRGRGIVVKWAPQEEVLAHPAVGGFLTHNGWNSTMEAISEGVPMVCCPRHGDQFGNMRYVCDVWKVGTELVGEQLERGQVKAAIDRLFGTKEGEEIKERMKEFKIAAAKGIGIGVDVDETASPRTDLTDLVDLIKSF	2.0	1.28	2.02	2.88E+06	3.68E+06	–
S364L: additional mutation in SEQ ID No: 17 (protein, Mutated Zea mays Bx9 protein sequence) MASSRTGAGAGGRVVVFPFPFQGHFNPVMRLARALHARGLAITVFHSGALDPADYPADYRFVPVTVEADPKLLASEDIAAIVTTLNASCDAPFRARLSALLAAEGRDSVRCVFTDVVWNAVLTASSDLGVPALGMMTASAASLRDYMAYRTLIDKGYLPVKEERKEDPVPELPPYLVKDLLRVDTSDLEEFAELLARTVTAARRASGLIFNTFPLIETDTLAEIHKALSVPVFAVAPLNKLVPTATASLHGVVQADRGCLQWLDTQQPGSVLYVSFGSFAAMDPHEFVELAWGLADSKRPFVWVVRPNLIRGFESGALPDGVEDEVRGRGIVVKWAPQEEVLAHPAVGGFLTHNGWNSTVEAILEGVPMVCCPRHGDQFGNMRYVCDVWKVGTELVGEQLERGQVKAAIDRLFGTKEGEEIKERMKEFKIAAAKGIGIGVDVDETASPRTDLTDLVDLIKSF	3.3	1.20	3.29	5.04E+06	6.00E+06	1.19
A236G: additional mutation in SEQ ID No: 17 (protein, Mutated Zea mays Bx9 protein sequence) MASSRTGAGAGGRVVVFPFPFQGHFNPVMRLARALHARGLAITVFHSGALDPADYPADYRFVPVTVEADPKLLASEDIAAIVTTLNASCDAPFRARLSALLAAEGRDSVRCVFTDVVWNAVLTASSDLGVPALGMMTASAASLRDYMAYRTLIDKGYLPVKEERKEDPVPELPPYLVKDLLRVDTSDLEEFAELLARTVTAARRASGLIFNTFPLIETDTLAEIHKALSVPVFAVGPLNKLVPTATASLHGVVQADRGCLQWLDTQQPGSVLYVSFGSFAAMDPHEFVELAWGLADSKRPFVWVVRPNLIRGFESGALPDGVEDEVRGRGIVVKWAPQEEVLAHPAVGGFLTHNGWNSTVEAISEGVPMVCCPRHGDQFGNMRYVCDVWKVGTELVGEQLERGQVKAAIDRLFGTKEGEEIKERMKEFKIAAAKGIGIGVDVDETASPRTDLTDLVDLIKSF	4.0	1.15	–	–	–	–
